Key:
Assay in all cases: cell-based or functional assay
[1] = target: HA of A/Beijing/262/95 (H1N1) (influenza A virus)
[2] = target: HA of B/Malaysia/2506/2004 (victoria) (influenza B virus)
[3] = target: HA of A/Wilson Smith N/33 (H1N1) (influenza A virus, UniProt P03454 18-565)
[4] = target: HA of B/Sichuan/379/99 (yamagata) (influenza B virus)
[5] = target: HA of ca A/Panama/2007/99 (H3N2) (influenza A virus)
[6] = target: HA of B/Ohio/1/2005 (victoria) (influenza B virus)
[7] = target: HA of A/California/07/2009 (H1N1) (influenza A virus)
[8] = target: HA of ca B/Beijing/243/97 (victoria) (influenza B virus)
[9] = target: HA of B/Hong Kong/330/2001 (victoria) (influenza B virus)
[10] = target: HA of A/Shan dong/9/93 (H3N2) (influenza A virus)
[11] = target: HA of B/Yamanashi/166/98 (yamagata) (influenza B virus)
[12] = target: HA of A/Hong Kong/8/68 (H3N2) (influenza A virus)
[13] = target: HA of A/Victoria/3/75 (H3N2) (influenza A virus)
[14] = target: HA of B/Florida/4/2006 (yamagata) (influenza B virus)
[15] = target: HA of A/Solomon Island/3/2006 (H1N1) (influenza A virus)

Chain of HA of A/Wilson Smith N/33 (H1N1) (P03454 18-565 limits assumed): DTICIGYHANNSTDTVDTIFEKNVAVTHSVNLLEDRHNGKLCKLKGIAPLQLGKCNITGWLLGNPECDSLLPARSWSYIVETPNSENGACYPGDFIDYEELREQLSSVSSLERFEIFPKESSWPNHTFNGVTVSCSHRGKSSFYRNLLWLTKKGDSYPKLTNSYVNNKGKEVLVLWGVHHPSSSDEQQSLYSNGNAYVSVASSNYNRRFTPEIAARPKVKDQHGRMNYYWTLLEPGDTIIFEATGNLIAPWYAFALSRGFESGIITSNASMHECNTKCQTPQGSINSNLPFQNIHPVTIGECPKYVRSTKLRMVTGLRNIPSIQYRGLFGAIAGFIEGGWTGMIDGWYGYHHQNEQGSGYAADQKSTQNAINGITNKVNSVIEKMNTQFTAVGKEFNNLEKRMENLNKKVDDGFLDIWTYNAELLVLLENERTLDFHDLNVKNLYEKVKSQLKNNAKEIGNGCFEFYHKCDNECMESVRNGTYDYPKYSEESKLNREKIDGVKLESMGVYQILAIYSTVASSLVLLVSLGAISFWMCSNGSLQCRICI

B1: GL20/39FTL BiS4 100/44 (bispecific antibody)
light: DIQMTQSPSSLSASVGDRVTITCRTSQSLSSYTHWYQQKPGKAPKLLIYAASSRGSGVPSRFSGSGSGTDFTLTISSLQPEDFATYYCQQSRTFGQGTKVEIK
heavy (part 1 of 2): QVQLQQSGPGLVKPSQTLSLTCAISGDSVSSYNAVWNWIRQSPSRGLEWLGRTYYRSGWYNDYAESVKSRITINPDTSKNQFSLQLNSVTPEDTAVYYCARSGHITVFGVNVDAFDMWGQGTMVTVSS
heavy (part 2 of 2): DIQMTQSPSSVSASVGDRVTITCRASQDISTWLAWYQQKPGKAPKLLIYAASSLQSGVPSRFSGSGSGTDFTLTISSLQPEDFATYYCQQANSFPPTFGCGTKLEIKGGGGSGGGGSGGGGSGGGGSEVQLVESGGGLVKPGGSLRLSCAASGFTFLNAWMSWVRQAPGKCLEWVGRIKSNTDGGTTDYAAPVKGRFTISRDDSKNTLYLQMSSLKTEDTAVYYCTTDGPYSDDFRSGYAARYRYFGMDVWGQGTTVTVSS
Neutralization (IC50) [1]: 16.4 nM
Neutralization (IC50) [2]: 42.8 nM
Neutralization (IC50) [3]: 13.7 nM
Neutralization (IC50) [4]: 9.8 nM
Neutralization (IC50) [5]: 34.1 nM
Neutralization (IC50) [6]: 20.9 nM
Neutralization (IC50) [7]: 25.4 nM
Neutralization (IC50) [8]: 96.2 nM
Neutralization (IC50) [9]: 106 nM
Neutralization (IC50) [10]: 21.9 nM
Neutralization (IC50) [11]: 1.4 nM
Neutralization (IC50) [12]: 10.8 nM
Neutralization (IC50) [13]: 13.3 nM
Neutralization (IC50) [14]: 7.3 nM
Neutralization (IC50) [15]: 4.4 nM

B2: FY1 IgG (antibody, V domains shown)
VH: QVQLQESGPGLVKPSQTLSLTCAISGDSVSSNNAVWNWIRQSPSRGLEWLGRTYYRSKWYNDYAESVKSRITVNPDTSKNQFSLHLKSVTPEDTAVFYCVRSGHITVFGVNVDAFDMWGQGTMVTVSS
VL: DIQMTQSPSSLSASVGDRVTITCRTSQSLSSYLHWYQQKPGKAPKLLIYAASSLQSGVPSRFSGSGSGTDFTLTISSLQPEDFATYYCQQSRTFGQGTKVEIK
Neutralization (IC50) [1]: 21 nM
Neutralization (IC50) [2]: > 1000 nM
Neutralization (IC50) [3]: 8.8 nM
Neutralization (IC50) [4]: > 1000 nM
Neutralization (IC50) [5]: 104 nM
Neutralization (IC50) [6]: > 1000 nM
Neutralization (IC50) [7]: 10.4 nM
Neutralization (IC50) [8]: > 1000 nM
Neutralization (IC50) [9]: > 1000 nM
Neutralization (IC50) [10]: 34.6 nM
Neutralization (IC50) [11]: > 1000 nM
Neutralization (IC50) [12]: 10.6 nM
Neutralization (IC50) [13]: 12 nM
Neutralization (IC50) [14]: > 1000 nM
Neutralization (IC50) [15]: 3.1 nM

B3: FBD94 IgG (antibody, V domains shown)
VH: EVQLVESGGGLVQPGRSLRLSCAVSGFIFEDYAINWVRQAPGKGLEWVSIISWDSGRIGYADSVRGRFTISRDNAKNSSFLQMNSLRPEDTAVYYCVKDMLAYYYDGSGIRYNLYGMDVWGQGTTVTVSS
VL: EIVLTQSPATLSLSPGERATLSCRASRSITTFLAWYQQKPGQAPRLLIYDASNRATGVPARFSGSGSGTDFTLTINSLEPDDFAIYYCQQRDHWPPIFGQGTRLEIK
Neutralization (IC50) [1]: > 1000 nM
Neutralization (IC50) [2]: 0.1 nM
Neutralization (IC50) [3]: > 1000 nM
Neutralization (IC50) [4]: 0.2 nM
Neutralization (IC50) [5]: > 1000 nM
Neutralization (IC50) [7]: > 1000 nM
Neutralization (IC50) [8]: 0.1 nM
Neutralization (IC50) [9]: 0.1 nM
Neutralization (IC50) [10]: > 1000 nM
Neutralization (IC50) [11]: 0.1 nM
Neutralization (IC50) [12]: > 1000 nM
Neutralization (IC50) [13]: > 1000 nM
Neutralization (IC50) [14]: 0.1 nM
Neutralization (IC50) [15]: > 1000 nM

B4: FY1/39 BiS4 100/44 (bispecific antibody)
light: DIQMTQSPSSLSASVGDRVTITCRTSQSLSSYLHWYQQKPGKAPKLLIYAASSLQSGVPSRFSGSGSGTDFTLTISSLQPEDFATYYCQQSRTFGQGTKVEIKRTVAAPSVFIFPPSDEQLKSGTASVVCLLNNFYPREAKVQWKVDNALQSGNSQESVTEQDSKDSTYSLSSTLTLSKADYEKHKVYACEVTHQGLSSPVTKSFNRGEC
heavy: not shown
Neutralization (IC50) [1]: 20.2 nM
Neutralization (IC50) [2]: 27.6 nM
Neutralization (IC50) [3]: 10.6 nM
Neutralization (IC50) [4]: 8.2 nM
Neutralization (IC50) [5]: 152 nM
Neutralization (IC50) [6]: 5.6 nM
Neutralization (IC50) [7]: 8.2 nM
Neutralization (IC50) [8]: 5.8 nM
Neutralization (IC50) [9]: 69.3 nM
Neutralization (IC50) [10]: 12.8 nM
Neutralization (IC50) [11]: 0.9 nM
Neutralization (IC50) [12]: 10.6 nM
Neutralization (IC50) [13]: 26.4 nM
Neutralization (IC50) [14]: 3.6 nM
Neutralization (IC50) [15]: 3.9 nM

B5: FY1/39 BiS4 43/105 (bispecific antibody)
light: DIQMTQSPSSLSASVGDRVTITCRTSQSLSSYLHWYQQKPGKAPKLLIYAASSLQSGVPSRFSGSGSGTDFTLTISSLQPEDFATYYCQQSRTFGQGTKVEIKRTVAAPSVFIFPPSDEQLKSGTASVVCLLNNFYPREAKVQWKVDNALQSGNSQESVTEQDSKDSTYSLSSTLTLSKADYEKHKVYACEVTHQGLSSPVTKSFNRGEC
heavy: not shown
Neutralization (IC50) [1]: 10.9 nM
Neutralization (IC50) [2]: 12.6 nM
Neutralization (IC50) [3]: 4.3 nM
Neutralization (IC50) [4]: 3.5 nM
Neutralization (IC50) [5]: 52.7 nM
Neutralization (IC50) [6]: 5.4 nM
Neutralization (IC50) [7]: 7.1 nM
Neutralization (IC50) [8]: 2.6 nM
Neutralization (IC50) [9]: 19.1 nM
Neutralization (IC50) [10]: 20.4 nM
Neutralization (IC50) [11]: 0.6 nM
Neutralization (IC50) [12]: 4 nM
Neutralization (IC50) [13]: 6.5 nM
Neutralization (IC50) [14]: 1.6 nM
Neutralization (IC50) [15]: 2.6 nM

B6: GL20/39FTL BiS4 43/105 (bispecific antibody)
light: DIQMTQSPSSLSASVGDRVTITCRTSQSLSSYTHWYQQKPGKAPKLLIYAASSRGSGVPSRFSGSGSGTDFTLTISSLQPEDFATYYCQQSRTFGQGTKVEIKRTVAAPSVFIFPPSDEQLKSGTASVVCLLNNFYPREAKVQWKVDNALQSGNSQESVTEQDSKDSTYSLSSTLTLSKADYEKHKVYACEVTHQGLSSPVTKSFNRGEC
heavy: not shown
Neutralization (IC50) [1]: 11.8 nM
Neutralization (IC50) [2]: 16.2 nM
Neutralization (IC50) [3]: 9.6 nM
Neutralization (IC50) [4]: 8.7 nM
Neutralization (IC50) [5]: 35.5 nM
Neutralization (IC50) [6]: 17.5 nM
Neutralization (IC50) [7]: 20.8 nM
Neutralization (IC50) [8]: 23.5 nM
Neutralization (IC50) [9]: 164 nM
Neutralization (IC50) [10]: 22.2 nM
Neutralization (IC50) [11]: 1.1 nM
Neutralization (IC50) [12]: 6.3 nM
Neutralization (IC50) [13]: 14.9 nM
Neutralization (IC50) [14]: 4.2 nM
Neutralization (IC50) [15]: 3.8 nM
